Laboratory results taken from IntAct's records for PubMed 31515488.

B1: 6-pyruvoyl tetrahydrobiopterin synthase (Homo sapiens), Q03393 (parent)
chain: MSTEGGGRRCQAQVSRRISFSASHRLYSKFLSDEENLKLFGKCNNPNGHGHNYKVVVTVHGEIDPATGMVMNLADLKKYMEEAIMQPLDHKNLDMDVPYFADVVSTTENVAVYIWDNLQKVLPVGVLYKVKVYETDNNIVVYKGE
B2: Transmembrane protein 51 (Homo sapiens), Q9NW97 (parent)
chain: MMAQSKANGSHYALTAIGLGMLVLGVIMAMWNLVPGFSAAEKPTAQGSNKTEVGGGILKSKTFSVAYVLVGAGVMLLLLSICLSIRDKRKQRQGEDLAHVQHPTGAGPHAQEEDSQEEEEEDEEAASRYYVPSYEEVMNTNYSEARGEEQNPRLSISLPSYESLTGLDETTPTSTRADVEASPGNPPDRQNSKLAKRLKPLKVRRIKSEKLHLKDFRINLPDKNVPPPSIEPLTPPPQYDEVQEKAPDTRPPD
partner: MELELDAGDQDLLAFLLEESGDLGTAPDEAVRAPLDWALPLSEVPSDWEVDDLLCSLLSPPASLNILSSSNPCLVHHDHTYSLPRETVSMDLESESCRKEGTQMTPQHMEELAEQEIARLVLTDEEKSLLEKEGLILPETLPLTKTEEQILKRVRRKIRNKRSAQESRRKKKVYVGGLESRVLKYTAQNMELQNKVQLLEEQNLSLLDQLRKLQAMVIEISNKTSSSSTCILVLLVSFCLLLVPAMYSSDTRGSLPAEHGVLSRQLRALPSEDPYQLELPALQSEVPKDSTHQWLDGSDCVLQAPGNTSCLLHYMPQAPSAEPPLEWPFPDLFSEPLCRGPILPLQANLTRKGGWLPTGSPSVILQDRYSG
B3: Septin-12 (Homo sapiens), Q8IYM1 (parent)
chain: MDPLRRSPSPCLSSQPSSPSTPPCEMLGPVGIEAVLDQLKIKAMKMGFEFNIMVVGQSGLGKSTMVNTLFKSKVWKSNPPGLGVPTPQTLQLHSLTHVIEEKGVKLKLTVTDTPGFGDQINNDNCWDPILGYINEQYEQYLQEEILITRQRHIPDTRVHCCVYFVPPTGHCLRPLDIEFLQRLCRTVNVVPVIARADSLTMEEREAFRRRIQQNLRTHCIDVYPQMCFDEDINDKILNSKLRDRIPFAVVGADQEHLVNGRCVLGRKTKWGIIEVENMAHCEFPLLRDLLIRSHLQDLKDITHNIHYENYRVIRLNESHLLPRGPGWVNLAPASPGQLTTPRTFKVCRGAHDDSDDEF
partner: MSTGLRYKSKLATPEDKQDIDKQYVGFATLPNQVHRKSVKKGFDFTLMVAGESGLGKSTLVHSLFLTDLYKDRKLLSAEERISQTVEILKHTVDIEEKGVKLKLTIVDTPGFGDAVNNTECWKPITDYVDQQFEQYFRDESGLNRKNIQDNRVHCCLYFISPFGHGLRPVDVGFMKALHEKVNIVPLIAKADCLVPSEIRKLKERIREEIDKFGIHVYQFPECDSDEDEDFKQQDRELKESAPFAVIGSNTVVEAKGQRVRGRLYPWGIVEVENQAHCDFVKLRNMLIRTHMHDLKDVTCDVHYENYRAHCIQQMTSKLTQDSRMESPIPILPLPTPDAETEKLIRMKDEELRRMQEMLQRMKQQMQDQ
B4: Guanine nucleotide exchange factor for Rab-3A (Homo sapiens), Q8TBN0 (parent)
chain: MWSGPPQPDQGLPPPLAAVPVPWKSTDPCQGHRESPGALVETSAGEEAQGQEGPAAAQLDVLRLRSSSMEIREKGSEFLKEELHRAQKELKLKDEECERLSKVREQLEQELEELTASLFEEAHKMVREANMKQAASEKQLKEARGKIDMLQAEVTALKTLVITSTPASPNRELHPQLLSPTKAGPRKGHSRHKSTSSTLCPAVCPAAGHTLTPDREGKEVDTILFAEFQAWRESPTLDKTCPFLERVYREDVGPCLDFTMQELSVLVRAAVEDNTLTIEPVASQTLPTVKVAEVDCSSTNTCALSGLTRTCRHRIRLGDSKSHYYISPSSRARITAVCNFFTYIRYIQQGLVRQDAEPMFWEIMRLRKEMSLAKLGFFPQEA
partner: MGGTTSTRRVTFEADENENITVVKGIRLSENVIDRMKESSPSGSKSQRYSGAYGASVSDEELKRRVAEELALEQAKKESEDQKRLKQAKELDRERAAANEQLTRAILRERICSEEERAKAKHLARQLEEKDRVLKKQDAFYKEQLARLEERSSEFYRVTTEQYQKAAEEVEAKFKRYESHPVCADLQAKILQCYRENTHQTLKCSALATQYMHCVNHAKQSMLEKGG

Variants of: B1
Details: with c1qc_human C1QC

| effect of a mutation on the interaction | Variant |
| --- | --- |
| disrupting interaction strength | MSTEGGGRCCQAQVSRRISFSASHRLYSKFLSDEENLKLFGKCNNPNGHGHNYKVVVTVHGEIDPATGMVMNLADLKKYMEEAIMQPLDHKNLDMDVPYFADVVSTTENVAVYIWDNLQKVLPVGVLYKVKVYETDNNIVVYKGE [R9C] |

Variants of: B1
Details: with ntaq1_human NTAQ1, Q96HA8

| effect of a mutation on the interaction | Variant |
| --- | --- |
| disrupting interaction strength | MSTEGGGRCCQAQVSRRISFSASHRLYSKFLSDEENLKLFGKCNNPNGHGHNYKVVVTVHGEIDPATGMVMNLADLKKYMEEAIMQPLDHKNLDMDVPYFADVVSTTENVAVYIWDNLQKVLPVGVLYKVKVYETDNNIVVYKGE [R9C] |

Variants of: B1
Details: with fxr2_human FXR2, P51116

| effect of a mutation on the interaction | Variant |
| --- | --- |
| disrupting interaction strength | MSTEGGGRCCQAQVSRRISFSASHRLYSKFLSDEENLKLFGKCNNPNGHGHNYKVVVTVHGEIDPATGMVMNLADLKKYMEEAIMQPLDHKNLDMDVPYFADVVSTTENVAVYIWDNLQKVLPVGVLYKVKVYETDNNIVVYKGE [R9C] |

Variants of: B2
Details: with creb3_human CREB3, O43889

| effect of a mutation on the interaction | Variant |
| --- | --- |
| with no effect | MMAQSKANGSHYALTAIGLGMLVLGVIMAMWNLVPGFSAAEKPTAQGSNKTEVGGGILKSKTFSVAYVLVGAGVMLLLLSICLSIRDKRKQRQGEDLAHVQHPTGAGPHAQEEDSQEEEEEDEEAASRYYVPSYEEVMNTNYSEARGEEQNPRLSISLPSYESLTGLDETTPTSTRADVEASPGNPPGRQNSKLAKRLKPLKVRRIKSEKLHLKDFRINLPDKNVPPPSIEPLTPPPQYDEVQEKAPDTRPPD [D188G] |
| with no effect | MMAQSKANGSHYALTAIGLGMLVLGVIMAMWNLVPGFSAAEKPTAQGSNKTEVGGGILKSKTFSVAYVLVGAGVMLLLLSICLSIRDKRKQRQGEDLAHVQHPTGAGPHAQEEDSQEEEEEDEEAASRYYVPSYEEVMNTNYSEARGEEQNPRLSISLSSYESLTGLDETTPTSTRADVEASPGNPPDRQNSKLAKRLKPLKVRRIKSEKLHLKDFRINLPDKNVPPPSIEPLTPPPQYDEVQEKAPDTRPPD [P159S] |
| with no effect | MMAQSKANGSHYALTAIGLGMLVLGVIMAMWNLVPGFSAAEKPTAQGSNKTEVGGGILKSKTFSVAYVLVGAGVMLLLLSICLSIRDKRKQRQGEDLAHVQHPTGAGPHAQEEDSQEEEEEDEEAASRYYVPSYEEVMNTNYSEARGEEQNPRLSISLPSYESLTGLDETTPTSTRADVEASPGNPPDRQNSKLAKRLKPLKVRRIKSEKLHLKDFRINLPDKNVPPPSIEPLTPPLQYDEVQEKAPDTRPPD [P237L] |

Variants of: B3
Details: with sept5_human SEPTIN5, Q99719

| effect of a mutation on the interaction | Variant |
| --- | --- |
| disrupting interaction strength | MDPLRRSPSPCLSSQPSSPSTPPCEMLGPVGIEAVLDQLKIKAMKMGFEFNIMVVGQSGLGKSTMVNTLFKSKVWKSNPPGLGVPTPQTLQLHSLTHVIEEKGVKLKLTVTDTPGFGDQINNDNCWDPILGYINEQYEQYLQEEILITRQRHIPDTRVHCCMYFVPPTGHCLRPLDIEFLQRLCRTVNVVPVIARADSLTMEEREAFRRRIQQNLRTHCIDVYPQMCFDEDINDKILNSKLRDRIPFAVVGADQEHLVNGRCVLGRKTKWGIIEVENMAHCEFPLLRDLLIRSHLQDLKDITHNIHYENYRVIRLNESHLLPRGPGWVNLAPASPGQLTTPRTFKVCRGAHDDSDDEF [V162M] |
| disrupting interaction strength | MDPLRRSPSPCLSSQPSSPSTPPCEMLGPVGIEAVLDQLKIKAMKMGFEFNIMVVGQSGLGKSTMVNTLFKSKVWKSNPPGLGVPTPQTLQLHSLTHVIEEKGVKLKLTVKDTPGFGDQINNDNCWDPILGYINEQYEQYLQEEILITRQRHIPDTRVHCCVYFVPPTGHCLRPLDIEFLQRLCRTVNVVPVIARADSLTMEEREAFRRRIQQNLRTHCIDVYPQMCFDEDINDKILNSKLRDRIPFAVVGADQEHLVNGRCVLGRKTKWGIIEVENMAHCEFPLLRDLLIRSHLQDLKDITHNIHYENYRVIRLNESHLLPRGPGWVNLAPASPGQLTTPRTFKVCRGAHDDSDDEF [T111K] |
| with no effect | MDPLRRSPSPCLSSQPSSPSTPPCEMLGPVGIEAVLDQLKIKAMKMGFEFNIMVVGQSGLGKSTMVNTLFKSNVWKSNPPGLGVPTPQTLQLHSLTHVIEEKGVKLKLTVTDTPGFGDQINNDNCWDPILGYINEQYEQYLQEEILITRQRHIPDTRVHCCVYFVPPTGHCLRPLDIEFLQRLCRTVNVVPVIARADSLTMEEREAFRRRIQQNLRTHCIDVYPQMCFDEDINDKILNSKLRDRIPFAVVGADQEHLVNGRCVLGRKTKWGIIEVENMAHCEFPLLRDLLIRSHLQDLKDITHNIHYENYRVIRLNESHLLPRGPGWVNLAPASPGQLTTPRTFKVCRGAHDDSDDEF [K73N] |

Variants of: B4
Details: with mic19_human CHCHD3, Q9NX63

| effect of a mutation on the interaction | Variant |
| --- | --- |
| with no effect | MWSGPPQPDQGLPPPLAAVPVPWKSTDPCQGHRESPGALVETSAGEEAQGQEGPAAAQLDVLRLRSSSMEIREKGSEFLKEELHRAQKELKLKDEECERLSKVREQLEQELEELTASLFEEAHKMVREANMKQAASEKQLKEARGKIDMLQAEVTALKTLVITSTPASPNRELHPQLLSPTKAGPRKGHPRHKSTSSTLCPAVCPAAGHTLTPDREGKEVDTILFAEFQAWRESPTLDKTCPFLERVYREDVGPCLDFTMQELSVLVRAAVEDNTLTIEPVASQTLPTVKVAEVDCSSTNTCALSGLTRTCRHRIRLGDSKSHYYISPSSRARITAVCNFFTYIRYIQQGLVRQDAEPMFWEIMRLRKEMSLAKLGFFPQEA [S190P] |
| with no effect | MWSGPPQPDQGLPPPLAAVPVPWKSTDPCQGHRESPGALVETSAGEEARGQEGPAAAQLDVLRLRSSSMEIREKGSEFLKEELHRAQKELKLKDEECERLSKVREQLEQELEELTASLFEEAHKMVREANMKQAASEKQLKEARGKIDMLQAEVTALKTLVITSTPASPNRELHPQLLSPTKAGPRKGHSRHKSTSSTLCPAVCPAAGHTLTPDREGKEVDTILFAEFQAWRESPTLDKTCPFLERVYREDVGPCLDFTMQELSVLVRAAVEDNTLTIEPVASQTLPTVKVAEVDCSSTNTCALSGLTRTCRHRIRLGDSKSHYYISPSSRARITAVCNFFTYIRYIQQGLVRQDAEPMFWEIMRLRKEMSLAKLGFFPQEA [Q49R] |
